This is an account of results in paper PMC4643364 (Cancer cell, 2015).

One may read the Kd as the free concentration of one partner at which half of the binding sites on the other are occupied at equilibrium, for simple one-to-one binding. The low end stands for tighter binding, the high end for weaker binding.

The assay deals with T1, EphB4 labelled with NT-647 dye (UniProt P54760 16-539, NT-647 dye through primary amide coupling).
T1 sequence (looked up): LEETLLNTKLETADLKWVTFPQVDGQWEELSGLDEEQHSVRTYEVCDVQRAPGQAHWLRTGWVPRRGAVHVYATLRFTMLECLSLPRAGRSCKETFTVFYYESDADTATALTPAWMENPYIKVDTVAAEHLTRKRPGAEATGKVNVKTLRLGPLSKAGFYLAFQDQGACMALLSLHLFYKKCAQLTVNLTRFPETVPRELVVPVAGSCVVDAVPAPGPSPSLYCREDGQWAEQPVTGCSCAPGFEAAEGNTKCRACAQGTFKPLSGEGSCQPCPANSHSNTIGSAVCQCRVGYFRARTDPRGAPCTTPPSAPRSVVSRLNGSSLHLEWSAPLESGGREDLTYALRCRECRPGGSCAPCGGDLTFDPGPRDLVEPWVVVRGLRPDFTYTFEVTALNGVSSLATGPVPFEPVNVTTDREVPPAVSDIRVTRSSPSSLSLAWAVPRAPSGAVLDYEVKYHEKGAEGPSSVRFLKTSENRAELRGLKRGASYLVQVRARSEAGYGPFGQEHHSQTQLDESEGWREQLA
Description: MST.

B1: EphrinB2/Fc, purified recombinant protein (Fc fusion, UniProt P52799 28-229, looked up)
chain: IVLEPIYWNSSNSKFLPGQGLVLYPQIGDKLDIICPKVDSKTVGQYEYYKVYMVDKDQADRCTIKKENTPLLNCAKPDQDIKFTIKFQEFSPNLWGLEFQKNKDYYIISTSNGSLEGLDNQEGGVCQTRAMKILMKVGQDASSAGSTRNKDPTRRPELEAGTNGRSSTTSPFVKPNPGSSTDGNSAGHSGNNILGSEVALFA
Turning to B1, the Kd was determined as 140 nM.
